# Data from ChEMBL document CHEMBL1129640, “Assessment of structural requirements for the monoamine oxidase-B-catalyzed oxidation of 1,4-disubstituted-1,2,3,6-tetrahydropyridine derivatives related to the neurotoxin 1-methyl-4-phenyl-1,2,3,6-tetrahydropyridine” (J Med Chem, 1996).
# Several values for one entry are separate records, joined by “and”; a condition that tells them apart may be missing. Equal entries are not always repeated.
# Assays:
# [1] = substrate: COc1ccc(C2=CCN(C)CC2)cc1; experiment: Michaelis-Menten constant was measured against monoamine oxidase B (MAO-B) from beef liver; Inactive
# [2] = substrate: CN1CC=C(c2ccc(Br)cc2)CC1; experiment: (§1) Michaelis-Menten constant was measured against monoamine oxidase B (MAO-B) from beef liver
# [3] = substrate: CCc1ccc(C2=CCN(C)CC2)cc1; experiment: as §1
# [4] = substrate: Cc1ccc(C2=CCN(C)CC2)cc1; experiment: as §1
# [5] = substrate: CN1CC=C(c2ccc(F)cc2)CC1; experiment: as §1
# [6] = substrate: CN1CC=C(c2ccc(Cl)cc2)CC1; experiment: as §1
protein,measurement,setting,value
Amine oxidase [flavin-containing] B (Bos taurus) (protein) MSSKCDVVVVGGGISGMAAAKLLHDSGLNVIVLEARDRVGGRTYTLRNQKVKYVDLGGSYVGPTQNHILRLSKELGLETYKVNEVERLIHHTKGKSYPFRGSFPSVWNPITYLDHNNLWRTMDDMGREIPSDAPWKAPLAEQWDLMTMKELLDKICWTESSKQLAILFVNLCVTAEIHEVSALWFLWYVKQCGGTTRIFSTSNGGQERKFVGGSGQVSERIMDLLGDRVKLERPVIHIDQTGENVLVETLNHELYEAKYVISAVPPVLGMKIHFNPPLPMMRNQLITRVPLGSVIKSIVYYKEPFWRNMDYCGSMIIEGEEAPVAYALDDTKPDGSYPAIIGFILAHKARKLARLTKEERLKKLCDLYAKVLGSQEALHPVHYEEKNWCEEQYSGGCYTSYFPPGIMTQYGRVLRQPVGRIYFAGTETATHWSGYMEGAVEAGERAAREILHAMGKIPEDEIWLPEPESVDVPAKPITTTFLQRHLPSVPGLLKLIGLTTIFSATALGFLAHKRGLLVRI,Km,[1],940 µM
same,kcat,[1],1.13 s⁻¹
same,Km,[2],140 µM
same,kcat,[2],1.18 s⁻¹
same,Km,[3],1890 µM
same,kcat,[3],1.42 s⁻¹
same,Km,[4],500 µM and 490 µM
same,Km,[5],220 µM
same,kcat,[5],1.55 s⁻¹
same,Km,[6],180 µM and 200 µM
